Source: the supplement of paper PMC7877785
± gives the uncertainty stated by the source.

Test: self-splicing fitness, log relative to wild type (ln ratio); higher = more splicing; Tetrahymena group I intron in knt gene, E. coli kanamycin selection, DiMSum; sequences stand for … in CUCUCU…GGAGGGAAAAGUUAUCAGGCAUGCACCUGGUAGCUAGUCUUUAAACCAAUAGAUUGCAUCGGUUUAAAAGGCAAGACCGUCAAAUUGCGGGAAAGGGGUCAACAGCCGUUCAGUACCAAGUCUCAGGGGAAACUUUGAGAUGGCCUUGCAAAGGGUAUGGUAAUAAGCUGACGGACAUGGUCCUAACCACGCAGCCAAGUCCUAAGUCAACAGAUCUUCUGUUGAUAUGGAUGCAGUUCACAGACUAAAUGUCGGUCGGGGAAGAUGUAUUCUUCUCAUAAGAUAUAGUCGGACCUCUCCUUAAUGGGAGCUAGCGGAUGAAGUGAUGCAACACUGGAGCCGCUGGGAACUAAUUUGUAUGCGAAAGUAUAUUGAUUAGUUUUGGAGUACUCGUGGUCG
Outline: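 Fitness was computed with DiMSum as the error-weighted combination of replicate fold changes, kanamycin versus none, each normalised to wild type. The library randomised all eight intron nucleotides of the P1ex region, with the intron placed in the knt kanamycin-resistance gene on pET-22b(+) in E. coli BL21(DE3). Six replicate transformations were grown overnight at 37°C or 30°C on LB agar with or without 25 μg/mL kanamycin, plus 100 μg/mL carbenicillin, 50 μM IPTG and 0.2% rhamnose. Pooled colonies were amplicon-sequenced on an Illumina HiSeq 2500.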

Sequence	self-splicing fitness (ln) (30 °C)	self-splicing fitness (ln) (37 °C)
GCUCAGCAAUAUUACGUCGA	-3.22 ± 0.17	-2.45 ± 0.16
ACGUAGCAAUAUUACGAAUU	-1.42 ± 0.087	-0.778 ± 0.11
AGAAAGCAAUAUUACGACAG	-2.36 ± 0.11	-0.954 ± 0.11
GCGGAGCAAUAUUACGUUGU	-2.96 ± 0.13	-1.79 ± 0.14
CCUAAGCAAUAUUACGAUUA	-3.04 ± 0.19	-2.62 ± 0.22
CCUCAGCAAUAUUACGGAUU	-4.3 ± 0.39	-2.56 ± 0.22
UUAAAGCAAUAUUACGCGAG	-0.116 ± 0.071	0.3 ± 0.085
UAUGAGCAAUAUUACGCUAC	-2.79 ± 0.2	-2.25 ± 0.43
ACUAAGCAAUAUUACGUGGG	-2.98 ± 0.14	-2.81 ± 0.14
AAAAAGCAAUAUUACGUAAA	-1.82 ± 0.086	-1.19 ± 0.09
ACCAAGCAAUAUUACGGAAA	-3.14 ± 0.18	-1.9 ± 0.13
UGCCAGCAAUAUUACGACCC	-3.56 ± 0.24	-1.42 ± 0.21
AAUAAGCAAUAUUACGUGUU	-3.01 ± 0.097	-2.58 ± 0.13
CAUCAGCAAUAUUACGACGC	-2.37 ± 0.23	-1.23 ± 0.26
GUUGAGCAAUAUUACGACAG	-4.09 ± 0.36	-2.49 ± 0.28
GAUAAGCAAUAUUACGGCUG	-0.569 ± 0.067	0.0614 ± 0.1
CGGUAGCAAUAUUACGUACG	-1.3 ± 0.12	-0.879 ± 0.16
UAUUAGCAAUAUUACGUCGA	-1.27 ± 0.16	-0.984 ± 0.17
UACUAGCAAUAUUACGGACU	-0.895 ± 0.12	-0.214 ± 0.17
UCAGAGCAAUAUUACGUAAG	-2.92 ± 0.14	-1.82 ± 0.13
CAGUAGCAAUAUUACGCAGU	-3.52 ± 0.34	-2.33 ± 0.22
UCAUAGCAAUAUUACGCCCU	-2.75 ± 0.36	–
UUACAGCAAUAUUACGUCCG	-1.53 ± 0.089	-0.482 ± 0.14
UCCUAGCAAUAUUACGGUCU	-1.59 ± 0.06	-0.444 ± 0.07
GGUGAGCAAUAUUACGAAGG	–	-2.87 ± 0.4

Sequence	self-splicing fitness (ln) (30 °C)	self-splicing fitness (ln) (37 °C)
ACCCAGCAAUAUUACGAAGA	-1.74 ± 0.12	-1.36 ± 0.15
GGAAAGCAAUAUUACGCCCU	-1.16 ± 0.21	-1.25 ± 0.21
UGGUAGCAAUAUUACGCGCG	0.0906 ± 0.2	-0.0153 ± 0.25
CGCUAGCAAUAUUACGGUUA	-2.22 ± 0.23	-1.82 ± 0.2
AUACAGCAAUAUUACGAGCC	-2.64 ± 0.27	–
UUCAAGCAAUAUUACGACGA	-0.243 ± 0.084	0.213 ± 0.084
UUCGAGCAAUAUUACGUUAA	-2.16 ± 0.31	-1.82 ± 0.21
GCACAGCAAUAUUACGACGU	-0.591 ± 0.073	-0.0751 ± 0.088
AGUAAGCAAUAUUACGCCGA	-1.31 ± 0.45	-0.709 ± 0.46
AUUCAGCAAUAUUACGGUUC	-1.64 ± 0.13	-0.855 ± 0.16
GACGAGCAAUAUUACGCAGU	-3.48 ± 0.28	-2.21 ± 0.23
AGGAAGCAAUAUUACGUUCG	-0.643 ± 0.071	-0.266 ± 0.11
AACAAGCAAUAUUACGGGGA	-3.21 ± 0.14	-0.987 ± 0.087
GGAUAGCAAUAUUACGCGGA	-2.65 ± 0.43	-1.57 ± 0.31
CAGUAGCAAUAUUACGUGUG	-1.64 ± 0.062	-1.23 ± 0.085
GCGCAGCAAUAUUACGUCUC	-0.0041 ± 0.098	0.525 ± 0.12
GGUCAGCAAUAUUACGUGCG	0.397 ± 0.12	-0.078 ± 0.13
AAUAAGCAAUAUUACGCAAU	-1.59 ± 0.075	-1.22 ± 0.082
ACCCAGCAAUAUUACGGGAG	-1.23 ± 0.059	-1.05 ± 0.082
CGUUAGCAAUAUUACGAAGG	-1.69 ± 0.1	-0.895 ± 0.11
CUCGAGCAAUAUUACGUUCG	–	-3.15 ± 0.47
CGCCAGCAAUAUUACGCGAG	-4.1 ± 0.18	-2.97 ± 0.25
AUCAAGCAAUAUUACGUCUG	-1.16 ± 0.062	-0.603 ± 0.076
UCGCAGCAAUAUUACGCAUC	-2.52 ± 0.21	-1.57 ± 0.17
GUGGAGCAAUAUUACGCAUC	–	-2.03 ± 0.41

Sequence	self-splicing fitness (ln) (30 °C)	self-splicing fitness (ln) (37 °C)
UCAUAGCAAUAUUACGCUUU	-3.91 ± 0.24	-2.41 ± 0.25
CCAGAGCAAUAUUACGUAGC	-3.23 ± 0.19	-2.38 ± 0.26
AUGGAGCAAUAUUACGGUGA	-2.9 ± 0.44	–
UUACAGCAAUAUUACGCUAG	-0.779 ± 0.11	-0.391 ± 0.11
GAUGAGCAAUAUUACGCCUG	-1.57 ± 0.26	-2.53 ± 0.41
AGGGAGCAAUAUUACGUAUC	-2.16 ± 0.25	–
CCGAAGCAAUAUUACGUAUA	–	-2.51 ± 0.41
UCCCAGCAAUAUUACGUGAC	-2.74 ± 0.15	-3.06 ± 0.32
CUCCAGCAAUAUUACGCACG	-1.52 ± 0.13	-1.12 ± 0.18
GAUAAGCAAUAUUACGACGC	0.303 ± 0.055	-0.0161 ± 0.063
GAACAGCAAUAUUACGGGAC	-2.66 ± 0.085	-1.36 ± 0.085
UGCUAGCAAUAUUACGAGUG	-1.98 ± 0.12	-1.08 ± 0.11
GAGCAGCAAUAUUACGAUCU	-1.71 ± 0.15	-0.141 ± 0.12
CUGUAGCAAUAUUACGACAU	-1.528 ± 0.014	-0.616 ± 0.033
UCGUAGCAAUAUUACGACUG	-1.02 ± 0.2	-2.28 ± 0.34
GAAUAGCAAUAUUACGGUGU	-3 ± 0.13	-1.58 ± 0.14
GUGGAGCAAUAUUACGAUUG	-1.98 ± 0.39	–
ACACAGCAAUAUUACGCUAA	-2.03 ± 0.1	-1.19 ± 0.1
GAAAAGCAAUAUUACGCGGC	-3.33 ± 0.19	-3.07 ± 0.26
AACCAGCAAUAUUACGAGAA	-1.71 ± 0.14	-1.02 ± 0.13
GUACAGCAAUAUUACGGGGU	-3.29 ± 0.16	-2.34 ± 0.11
GGCCAGCAAUAUUACGUGUU	-0.771 ± 0.055	-0.0103 ± 0.07
CGCCAGCAAUAUUACGCUCC	-0.395 ± 0.13	-1.36 ± 0.2
GAAAAGCAAUAUUACGCUCU	-2.07 ± 0.13	-1.27 ± 0.13
AUAGAGCAAUAUUACGUGAU	-2.02 ± 0.12	-0.825 ± 0.17

Sequence	self-splicing fitness (ln) (30 °C)	self-splicing fitness (ln) (37 °C)
GAGUAGCAAUAUUACGCGUC	-1.36 ± 0.21	-1.26 ± 0.22
CGCGAGCAAUAUUACGGAUG	-2.25 ± 0.17	-0.671 ± 0.12
UCUCAGCAAUAUUACGACCG	–	-1.07 ± 0.47
UCGUAGCAAUAUUACGGAUC	-3.32 ± 0.45	-2.85 ± 0.48
AGACAGCAAUAUUACGUAGC	-2.07 ± 0.19	-2.14 ± 0.23
CCCCAGCAAUAUUACGAUCG	-2.85 ± 0.13	-0.917 ± 0.14
GUGCAGCAAUAUUACGCUCU	-1.77 ± 0.14	-0.404 ± 0.15
AGAUAGCAAUAUUACGGUUG	-3.03 ± 0.17	-2.57 ± 0.29
UACCAGCAAUAUUACGGCUC	-0.179 ± 0.074	-0.0529 ± 0.096
GUGCAGCAAUAUUACGCUAG	-3.71 ± 0.31	-2.47 ± 0.32
AUAAAGCAAUAUUACGCCUG	0.243 ± 0.077	-0.132 ± 0.09
GGACAGCAAUAUUACGAGAC	-2.05 ± 0.33	-1.1 ± 0.16
CAGUAGCAAUAUUACGAUUC	-3.11 ± 0.22	-2.27 ± 0.26
ACGAAGCAAUAUUACGUGGA	-2.7 ± 0.13	-2.69 ± 0.18
UCACAGCAAUAUUACGUUCC	-3.38 ± 0.21	-1.47 ± 0.22
AUAGAGCAAUAUUACGGUUA	-1.49 ± 0.083	-1.05 ± 0.11
GGUUAGCAAUAUUACGCGUC	-1.53 ± 0.2	-1.04 ± 0.18
AACGAGCAAUAUUACGAGGG	-3.03 ± 0.36	-2.35 ± 0.29
AUUCAGCAAUAUUACGCUCA	-0.0142 ± 0.092	-0.0382 ± 0.14
CGGAAGCAAUAUUACGGGAC	-3.5 ± 0.3	–
CACUAGCAAUAUUACGAAGU	-2.82 ± 0.21	-3.06 ± 0.29
AAUCAGCAAUAUUACGGAAA	-1.19 ± 0.099	0.0734 ± 0.12
UGAAAGCAAUAUUACGGCAA	-0.125 ± 0.078	0.497 ± 0.1
